Experimental data as given in US20210047432A1 (DIACCURATE, published 2021).

Columns and labels:
[1] = target: T1, recombinant human sPLA2-GIB (mature secreted group IB pancreatic phospholipase A2) (human, UniProt P04054 23-148); assay: SPR (BIAcore 2000), antibody captured, antigen in solution
T1 construct: also called sPLA2-IB; PLA2-GIB mature form
Procedure: (§1) The affinity constants (KD) of the pro-sPLA2-GIB and sPLA2-GIB binding to the #2B, #2B1 and #2B2 antibodies were determined by surface kinetics on a real-time biosensor surface plasmon resonance assay (BIAcore™). More specifically, the affinity of the antibodies for human pro-sPLA2-IB and sPLA2-IB was measured using a BIAcore® 2000. The antibody was captured on an anti-mouse IgG surface and exposed to various concentrations of recombinant pro-sPLA2-IB and sPLA2-IB protein. Kinetic analysis using BIAevaluation™ software was performed to obtain the association and dissociation rate constants.
as §1, with “to” for “to the #2B,”, “#2B2” for “#2B2 antibodies”, “(BIAcore™).” for “(BIAcore™). More specifically, the affinity of the antibodies for human pro-sPLA2-IB and sPLA2-IB was measured using a BIAcore® 2000.”, “constants (Table 7).” for “constants.”

[2] = target: T2, recombinant human pro-sPLA2-GIB (human, UniProt P04054 16-148); assay: as above
T2 construct: also called pro-sPLA2-IB; proPLA2-GIB
T2 sequence (P04054 16-148): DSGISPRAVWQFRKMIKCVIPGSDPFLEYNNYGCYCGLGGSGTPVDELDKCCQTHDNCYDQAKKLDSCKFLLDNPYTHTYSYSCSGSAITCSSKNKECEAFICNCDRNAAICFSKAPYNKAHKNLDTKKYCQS
Procedure: as §1
as §1, with “to” for “to the #2B,”, “#2B2” for “#2B2 antibodies”, “(BIAcore™).” for “(BIAcore™). More specifically, the affinity of the antibodies for human pro-sPLA2-IB and sPLA2-IB was measured using a BIAcore® 2000.”, “constants (Table 7).” for “constants.”

human FcγRIIIA(V176) = target: T3, human FcγRIIIA(V176) (human, UniProt P08637 17-254); assay: flow cytometry, monomeric IgG on CHO cells expressing the receptor
T3 construct: whole, on cells; also called hFcγRIIIA(V176)
T3 sequence (P08637 17-254 F176V limits assumed): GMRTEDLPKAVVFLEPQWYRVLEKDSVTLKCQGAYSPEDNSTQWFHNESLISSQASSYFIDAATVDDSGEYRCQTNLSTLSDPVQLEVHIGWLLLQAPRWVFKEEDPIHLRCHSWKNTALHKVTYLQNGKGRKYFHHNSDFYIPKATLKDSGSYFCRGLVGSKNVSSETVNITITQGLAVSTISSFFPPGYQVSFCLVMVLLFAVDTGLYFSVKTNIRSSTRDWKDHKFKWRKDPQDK
Procedure: (§2) Monomeric IgG binding was tested by incubating the #2B, #2B1 and #2B2 antibodies (100 ng/mL) with 1×10⁵ CHO cells stably expressing human FcγRs for 30 min on ice. The cells were then washed, detached, fixed, and analyzed by flow cytometry (FACSCalibur; BD Biosciences).
(§3) The binding of monomeric #2B, #2B1 and #2B2 to human FcγRs was tested by flow cytometry by incubating the mAbs with CHO cells stably expressing human FcγRI, FcγRIIA (H131), FcγRIIA(R131), FcγRIIB, FcγRIIIA(F176), FcγRIIIA(V176), FcγRIIIB(NA1), FcγRIIIB(NA2), and FcγRIIIB(SH), (REF P. Bruhns). As presented in FIG. 9, #2B is binding to hFcγRI and hFcγRIIIA(V176) only, whereas no monomeric binding of #2B1 and #2B2 to all tested hFcγRs was observed. Antibody-antigen immune complex was tested by first incubating the mAb with the antigen and then, incubating the immune complexes formed with CHO cells stably expressing human FcγRs. The immune complexe of #2B is binding to all tested hFcγRs, except hFcγRIIB (FIG. 10). Weak binding is observed for immune complex of #2B1 to hFcγRIIIA(V176) (data not shown), whereas no immune complex binding of #2B2 to any tested hFcγRs (data not shown).

human FcγRIIB = target: T4, human FcγRIIB (human, UniProt P31994 43-310); assay: as above
T4 construct: whole, on cells; also called hFcγRIIB
T4 sequence (looked up): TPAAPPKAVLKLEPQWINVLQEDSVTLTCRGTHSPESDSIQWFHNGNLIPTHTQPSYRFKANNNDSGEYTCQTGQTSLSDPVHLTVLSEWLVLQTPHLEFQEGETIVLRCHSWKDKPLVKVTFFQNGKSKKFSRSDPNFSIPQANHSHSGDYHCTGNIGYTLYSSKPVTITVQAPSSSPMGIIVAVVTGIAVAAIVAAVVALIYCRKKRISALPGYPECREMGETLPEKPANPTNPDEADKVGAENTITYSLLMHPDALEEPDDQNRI
Procedure: as §2, §3

human FcγRI = target: T5, human FcγRI (human, UniProt P12314 16-374); assay: as above
T5 construct: whole, on cells; also called hFcγRI
T5 sequence (P12314 16-374): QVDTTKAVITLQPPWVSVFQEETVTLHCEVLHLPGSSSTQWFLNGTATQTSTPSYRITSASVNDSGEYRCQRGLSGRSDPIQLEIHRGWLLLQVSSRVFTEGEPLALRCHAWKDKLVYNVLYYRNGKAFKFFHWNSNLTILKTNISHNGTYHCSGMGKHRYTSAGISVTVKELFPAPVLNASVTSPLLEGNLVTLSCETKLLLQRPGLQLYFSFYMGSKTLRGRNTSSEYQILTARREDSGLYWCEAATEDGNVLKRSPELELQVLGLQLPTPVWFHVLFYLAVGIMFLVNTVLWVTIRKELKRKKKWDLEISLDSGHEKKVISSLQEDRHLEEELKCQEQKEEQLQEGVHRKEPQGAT
Procedure: as §2, §3

human FcγRIIIA(F176) = target: T6, human FcγRIIIA(F176) (human, UniProt P08637 17-254); assay: as above
T6 construct: whole, on cells
T6 sequence (P08637 17-254): as the sequence (P08637 17-254 F176V limits assumed) above, with V160F counted along it
Procedure: as §2, §3

human FcγRIIIB(NA1) = target: T7, human FcγRIIIB(NA1) (human, UniProt O75015 17-200); assay: as above
T7 construct: whole, on cells
T7 sequence (O75015 other isoform, or with tags, fused parts or gaps): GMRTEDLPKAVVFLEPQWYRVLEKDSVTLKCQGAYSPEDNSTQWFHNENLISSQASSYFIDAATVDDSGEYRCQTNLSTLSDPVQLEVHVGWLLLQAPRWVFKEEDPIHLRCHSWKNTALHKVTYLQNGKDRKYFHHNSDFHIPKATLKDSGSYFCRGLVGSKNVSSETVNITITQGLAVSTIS
Procedure: as §2, §3

human FcγRIIA (H131) = target: T8, human FcγRIIA (H131) (human, UniProt P12318 34-317); assay: as above
T8 construct: whole, on cells; Allelic variant with His at 131 (mature numbering as printed)
T8 sequence (looked up): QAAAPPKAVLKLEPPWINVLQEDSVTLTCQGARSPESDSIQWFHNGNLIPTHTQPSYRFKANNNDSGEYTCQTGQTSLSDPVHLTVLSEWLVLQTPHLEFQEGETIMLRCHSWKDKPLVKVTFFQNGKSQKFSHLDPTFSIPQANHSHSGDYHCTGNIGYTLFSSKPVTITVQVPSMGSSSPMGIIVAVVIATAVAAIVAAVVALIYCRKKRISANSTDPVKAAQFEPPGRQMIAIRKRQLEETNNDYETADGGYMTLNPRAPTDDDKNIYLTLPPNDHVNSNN
Procedure: as §2, §3

human FcγRIIA(R131) = target: T9, human FcγRIIA(R131) (human, UniProt P12318 34-317); assay: as above
T9 construct: whole, on cells; Allelic variant with Arg at 131 (so in the source)
T9 sequence (looked up): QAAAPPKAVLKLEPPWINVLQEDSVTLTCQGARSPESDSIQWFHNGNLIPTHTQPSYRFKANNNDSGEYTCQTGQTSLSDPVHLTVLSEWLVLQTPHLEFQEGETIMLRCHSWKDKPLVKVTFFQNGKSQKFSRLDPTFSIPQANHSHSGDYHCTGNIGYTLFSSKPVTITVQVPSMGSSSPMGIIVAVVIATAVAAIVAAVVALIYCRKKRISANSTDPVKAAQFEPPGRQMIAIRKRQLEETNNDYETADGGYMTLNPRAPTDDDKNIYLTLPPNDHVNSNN
Procedure: as §2, §3

human FcγRIIIB(NA2) = target: T10, human FcγRIIIB(NA2) (human, UniProt O75015 17-200); assay: as above
T10 construct: whole, on cells
T10 sequence (O75015 17-200 N65S): as the sequence (O75015 other isoform, or with tags, fused parts or gaps) above, with R20S, N49S, D66N, V90I counted along it
Procedure: as §2, §3

human FcγRIIIB(SH) = target: T11, human FcγRIIIB(SH) (human, UniProt O75015 17-200); assay: as above
T11 construct: whole, on cells
T11 sequence (O75015 17-200 N65S/A78D): as the sequence (O75015 other isoform, or with tags, fused parts or gaps) above, with R20S, N49S, A62D, D66N, V90I counted along it
Procedure: as §2, §3

T1 sequence (P04054 23-148): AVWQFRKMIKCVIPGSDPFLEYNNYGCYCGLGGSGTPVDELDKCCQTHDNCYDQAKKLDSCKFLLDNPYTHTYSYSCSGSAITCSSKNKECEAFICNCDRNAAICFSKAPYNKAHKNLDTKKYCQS

Kd [1]: 0.796 nM | koff [1]: 0.00247 s⁻¹ | kon [1]: 3.02e+06 M⁻¹ s⁻¹ | t½ [1]: 4.7 min | Kd [2]: 880 nM | koff [2]: 0.146 s⁻¹ | kon [2]: 164000 M⁻¹ s⁻¹ | t½ [2]: 0.079 min | binding result (human FcγRIIIA(V176)): no binding (tested: 100 ng/mL) | binding result (human FcγRIIB): no binding (tested: 100 ng/mL) | binding result (human FcγRI): no binding (tested: 100 ng/mL) | binding result (human FcγRIIIA(F176)): no binding (tested: 100 ng/mL) | binding result (human FcγRIIIB(NA1)): no binding (tested: 100 ng/mL) | binding result (human FcγRIIA (H131)): no binding (tested: 100 ng/mL) | binding result (human FcγRIIA(R131)): no binding (tested: 100 ng/mL) | binding result (human FcγRIIIB(NA2)): no binding (tested: 100 ng/mL) | binding result (human FcγRIIIB(SH)): no binding (tested: 100 ng/mL)
B1: humanized antibody #2B2 (mutations L234A, L235E and P331S) (antibody, human IgG1, kappa)
heavy: QVQLVQSGAEVKKPGASVKVSCKASGYTFTNYWIHWVRQAPGQGLEWIGNIDPSDTRTHYNQKFKDRATLTVDKSTSTAYMELSSLRSEDTAVYYCARQTLYYEALDYWGQGTLVTVSSASTKGPSVFPLAPSSKSTSGGTAALGCLVKDYFPEPVTVSWNSGALTSGVHTFPAVLQSSGLYSLSSVVTVPSSSLGTQTYICNVNHKPSNTKVDKRVEPKSCDKTHTCPPCPAPEAEGGPSVFLFPPKPKDTLMISRTPEVTCVVVDVSHEDPEVKFNWYVDGVEVHNAKTKPREEQYNSTYRVVSVLTVLHQDWLNGKEYKCKVSNKALPASIEKTISKAKGQPREPQVYTLPPSREEMTKNQVSLTCLVKGFYPSDIAVEWESNGQPENNYKTTPPVLDSDGSFFLYSKLTVDKSRWQQGNVFSCSVMHEALHNHYTQKSLSLSPGK
light: EIVMTQSPATLSVSPGERATLSCKASQDVSTAVAWYQQKPGQAPRLLIYWASTRHTGIPARFSGSRSGTEYTLTISSLQSEDFAVYYCQQDYSTPPTFGGGTKVEIKRTVAAPSVFIFPPSDEQLKSGTASVVCLLNNFYPREAKVQWKVDNALQSGNSQESVTEQDSKDSTYSLSSTLTLSKADYEKHKVYACEVTHQGLSSPVTKSFNRGEC
notes: #2B with L234A, L235E and P331S in the heavy chain constant region; also called Ab #2B2; #2B2 humanized mAb; copies: 2 + 2
